The record followed here is PMC10031235 (Protein Science : A Publication of the Protein Society, 2023).

This data set deals with the molecule itself. Nature of the data set: SEC; size-exclusion chromatography of purified PSAT in solution (Figure S7); conditions not shown.

B1: human phosphoserine aminotransferase (PSAT-β) (enzyme)
chain: MDAPRQVVNFGPGPAKLPHSVLLEIQKELLDYKGVGISVLEMSHRSSDFAKIINNTENLVRELLAVPDNYKVIFLQGGGCGQFSAVPLNLIGLKAGRCADYVVTGAWSAKAAEEAKKFGTINIVHPKLGSYTKIPDPSTWNLNPDASYVYYCANETVHGVEFDFIPDVKGAVLVCDMSSNFLSKPVDVSKFGVIFAGAQKNVGSAGVTVVIVRDDLLGFALRECPSVLEYKVQAGNSSLYNTPPCFSIYVMGLVLEWIKNNGGAAAMEKLSSIKSQTIYEIIDNSQGFYVCPVEPQNRSKMNIPFRIGNAKGDDALEKRFLDKALELNMLSLKGHRSVGGIRASLYNAVTIEDVQKLAAFMKKFLEMHQL
modifications: pyridoxal 5'-phosphate covalently bound to Lys200 (internal aldimine); pyridoxamine phosphate in place of PLP in some chains
notes: human phosphoserine aminotransferase, PSAT1 (PSAT-β), wild type, EC 2.6.1.52; gene coding for human PSAT-β cloned in a modified pET28b; electron density continuous from residue 6 to 370; also called PSAT1; human PSAT; source: E. coli BL21(DE3) tuner, purified (IMAC Talon; Superdex 75 before crystallization)
Consider B1, for which the stoichiometry N (usually the number of molecules, sites or subunits per partner or assembly) came to 2.
